We go through 6 molecules from patent US20100249038A1, “ANTAGONISTS OF THE RECEPTOR FOR ADVANCED GLYCATION END-PRODUCTS (RAGE)” (Board of Regents, University of Texas System, priority 2007, published 2010).

In assay [1] the target is T1, RAGE (sRAGE, extracellular domain) (Homo sapiens, UniProt Q15109).
T1 construct: the extracellular domain of RAGE peptide (sRAGE) was coated onto the ELISA plate
The experiment in a line: ELISA of S100A4 binding to coated sRAGE. Conditions: FIG. 10.

Assay [2] concerns NFκB activity in orthotopic MPanc-96 tumor. The experiment in a line: NFκB-Luc activity in orthotopic MPanc-96 tumors after intraperitoneal injection. The class given is in vivo. Conditions: 10 mg/kg b.wt intraperitoneally, measured after 4 hrs; p<0.05; FIG. 13. On the procedure: MPanc-96 pancreatic cancer cells stably transfected with the NFκB-Luc reporter were injected orthotopically into the pancreas (1×10^6), and NFκB activity indicated by luciferase activity was measured after two weeks. S100P peptide antagonists (L-peptide and D-peptide) (10 mg/kg·b·wt) were injected intraperitoneally and NFκB activity in the orthotopic tumor was measured after 4 hrs.

Assay [3] deals with T1, RAGE (sRAGE, extracellular domain). The experiment in a line: ELISA of S100P binding to coated sRAGE. Conditions: FIG. 10. (In general: In an ELISA, binding on a coated surface is turned into a signal by an enzyme label.)
Assay [4] has as its system NFκB activity in subcutaneous MPanc-96 tumors. The experiment in a line: NFκB-Luc activity in subcutaneous MPanc-96 tumors after intratumoral injection. It counts as in vivo, nude mice. The settings on record: 10 mg/kg b.wt intratumorally, measured after 4 hours; FIG. 12. On the procedure: S100P peptide antagonists (L-peptide and D-peptide) block NFκB activity in vivo in subcutaneous tumors. MPanc-96 pancreatic cancer cells stably transfected with the NFκB-Luc reporter were injected into nude mice subcutaneously (1×10^6) and in vivo NFκB activity indicated by luciferase was measured using an IVIS-100 bioluminescence system. S100P peptide antagonists (L-peptide and D-peptide) (10 mg/kg·b·wt) were injected intratumorally and NFκB activity was measured after 4 hours. […] Thus, delivery of peptide antagonists by direct injection in subcutaneous tumors inhibits NFκB as an indirect read-out of RAGE.

In assay [5] the test system is S100P induced NFκB activity in pancreatic cancer MPanc-96 cells. The experiment in a line: S100P induced NFκB-Luc reporter activity in MPanc-96 cells. Conditions: pre-treatment with peptide, FIG. 11. It counts as cell-based. From the text: MPanc-96 pancreatic cancer cells were stably transfected with a reporter plasmid, NFκB-Luc reporter, that provides a quantifiable photon output based on NFκB transcriptional activity. Extracellular addition of S100P to the cells induced the NFκB activity, which has previously been proven to be mediated through interaction with RAGE. Pre-treatment of the cells with S100P peptide antagonists (L-peptide and D-peptide), block S100P binding with its receptor RAGE, thus blocking S100P induced NFκB activity. Results of this assay are depicted in FIG. 11.

Assay [6] concerns the target T1, RAGE (sRAGE, extracellular domain). The experiment in a line: ELISA of amphoterin (HMGB1) binding to coated sRAGE. The settings on record: amphoterin 0-100 ng; FIG. 9; p<0.05 versus HMGB1 alone. The text has this:
S100P peptide antagonists having the sequence Ac-ELKVLMEKEL-NH2 were made with standard L isomers of amino acids. This peptide antagonist comprises the amino acid sequence referred to as SEQ ID NO: 1 (ELKVLMEKEL), and in this instance the termini were blocked to prevent and/or reduce degradation. The inverse sequence, Ac-LEKEMLVKLE-NH2 was produced using D isomers of amino acids. This peptide antagonist comprises the amino acid sequence referred to as SEQ ID NO: 4 (LEKEMLVKLE), and in this instance the termini were blocked to prevent and/or reduce degradation. D isomers of amino acids, which are not naturally occurring, are thought to provide prolonged half-life in vivo. […] For this study, the extracellular domain of RAGE peptide (sRAGE) was coated onto the ELISA plate for 1 hour and non-specific binding sites were blocked with 1% BSA for 15 minutes. Amphoterin (0-100 ng) was added and incubated for 1 hour to allow its binding to its receptor and unbound molecules were removed by washing. Primary antibody against amphoterin and secondary antibody labeled with HRP and subsequently substrate for HRP was used to detect bound amphoterin with its receptor sRAGE. […] A control peptide of the same size had no effect. *=p<0.05 versus HMGB1 alone.
Inhibition of the binding of amphoterin to RAGE by antagonist peptides was tested using an in vitro ELISA based binding assay. […]

In assay [7] the test system is NFκB activity in S100P expressing BxPC3 cell tumors. The experiment in a line: Basal NFκB luciferase activity in BxPC3 cell tumors in vivo after i.p. peptide. Conditions: BxPC3 tumors in scid mice, 24 h after peptide delivery vs time 0, FIG. 8. As to the method:
(§1) The effect of these novel peptide antagonists was evaluated on NFκB activity stimulated by S100P in Panc-1 cells. Panc-1 cells stably expressing the NFκB luciferase reporter gene were treated with or without S100P (100 nM) and either peptides of SEQ ID NOs: 1, 2 or 3 (1 μg/ml) for 4 hours. NFκB activity was estimated using luciferase quantitation. Numbers represent means±SE of triplicate determinations. * vs S100P alone (p<0.05); # vs control (p<0.05). Furthermore, administration of peptide of SEQ ID NO: 1 but not SEQ ID NO: 3 inhibited basal NFκB activity in S100P expressing BxPC3 cell tumors when administered in vivo as shown in FIG. 8. BxPC3 cells stably expressing an NFκB luciferase reporter were transplanted to scid mice and tumors were allowed to form. Animals were then injected i.p. with either peptide of SEQ ID NO: 1 (FIG. 8A) or SEQ ID NO: 3 (FIG. 8B). Imaging of luciferase activity was performed before and 24 h after peptide delivery. […] Numbers represent means±SE of triplicate determinations. *=p<0.05 vs time 0.

Assay [8] concerns NFκB activity stimulated by S100P in Panc-1 cells. The experiment in a line: NFκB luciferase reporter activity stimulated by S100P in Panc-1 cells. Conditions: S100P 100 nM, peptide 1 μg/ml, 4 hours, FIG. 7B. The class given is cell-based. On the procedure: as §1
Assay [9] deals with T2, RAGE (Homo sapiens, UniProt Q15109). The experiment in a line: ELISA-type assay of purified S100P binding to coated purified RAGE. Details: Purified RAGE was coated into culture wells. Conditions: peptides 50 μM; FIG. 7A; preliminary studies. On the procedure: The binding of purified S100P to RAGE was evaluated using an ELISA technique. Purified RAGE was coated into culture wells, S100P was allowed to bind in the presence and absence of the peptides (50 μM), the dishes were extensively washed, and bound S100P was detected with a specific antibody coupled to HRP.
Target sequence in this assay (Q15109 23-342): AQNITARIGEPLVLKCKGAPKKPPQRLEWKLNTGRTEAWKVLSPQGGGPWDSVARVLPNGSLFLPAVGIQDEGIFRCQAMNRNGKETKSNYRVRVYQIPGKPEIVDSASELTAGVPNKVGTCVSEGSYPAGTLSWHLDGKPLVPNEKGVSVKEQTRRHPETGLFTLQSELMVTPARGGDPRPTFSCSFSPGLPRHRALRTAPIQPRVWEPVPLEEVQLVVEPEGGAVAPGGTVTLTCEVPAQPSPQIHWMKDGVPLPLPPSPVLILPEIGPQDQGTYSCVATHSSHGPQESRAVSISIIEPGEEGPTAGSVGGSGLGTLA

Assay [10] concerns human umbilical vein endothelial cells (HUVECs). The experiment in a line: HUVEC migration and alignment on Matrigel. The class given is cell-based. Conditions: 4 hours, FIG. 4C. On the procedure: (§2) S100P is secreted by pancreatic cancer cells and acts in an autocrine manner to stimulate their growth, survival, and invasiveness. Thus, S100P could also interact with receptors on cells within the microenvironment. The effects of S100P on human umbilical vein endothelial cells (HUVECs) in vitro were examined. […] HUVEC cells were cultured in the presence of either S100P or uninduced bacterial protein for 48 hours and the number of cells was estimated using MTS. […] Tumors formed with BxPC3 cells were harvested and frozen sections were stained for CD31 staining with the help of the Cancer Biology Histology core. Microvessels bearing CD31 are stained brown. […] HUVEC cells were plated on Matrigel and followed for 4 hours. After this time, control cells mostly remained individually isolated while a few cells began to migrate and align themselves and occasional sprouting was observed. At 4 hrs, cells treated with S100P had mostly migrated aligned themselves, sprouted, formed closed polygons and a complex mesh like structure had developed.

Assay [11] shares this test system. The experiment in a line: HUVEC cell number after S100P treatment (MTS). It counts as cell-based. The settings on record: S100P treatment for 48 hrs vs uninduced bacterial protein; FIG. 4A. On the procedure:
as §2

Assay [12] concerns the target T2, RAGE. The experiment in a line: Co-immunoprecipitation of RAGE with S100P from pancreatic cancer cell lysates. It counts as binding. Details: endogenous in cells; host or cells: MiaPaca2, BxPC3 (and Panc-1, printed 'Panel') cell lysates. The settings on record: S100P 100 ng, 16 hours at 4° C., FIG. 5. As to the method:
As a direct indication of this interaction, lysates from Panel, and MiaPaca2 cells were incubated with S100P and S100P was then immunoprecipitated. RAGE was not present in the samples run without addition of S100P or S100P antibody (lanes A-C), but RAGE was present when both these reagents were included (lanes D-F). […] In these experiments MiaPaca2 (A-D) and BxPC3-1 (E) cell lysates were incubated in the presence of S100P (100 ng) for 16 hours at 4° C. before immunoprecipitation with anti-S100P monoclonal antibodies (IP-S100P) (+) or control IgG (−) and RAGE was identified in the immunoprecipitates by western blotting with an anti-RAGE antibody (IB-RAGE).
Target sequence in this assay (Q15109 23-404): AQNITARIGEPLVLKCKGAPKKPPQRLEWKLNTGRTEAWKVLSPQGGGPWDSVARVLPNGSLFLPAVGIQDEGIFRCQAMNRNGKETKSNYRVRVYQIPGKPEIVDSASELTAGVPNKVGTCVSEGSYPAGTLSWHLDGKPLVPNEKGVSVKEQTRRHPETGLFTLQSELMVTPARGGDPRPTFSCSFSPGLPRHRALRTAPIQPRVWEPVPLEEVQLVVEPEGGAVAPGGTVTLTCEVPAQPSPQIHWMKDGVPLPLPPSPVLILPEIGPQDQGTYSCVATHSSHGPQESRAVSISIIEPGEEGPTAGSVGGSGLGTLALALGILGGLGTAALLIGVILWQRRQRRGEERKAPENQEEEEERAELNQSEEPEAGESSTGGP

Non-standard residues stand in square brackets, D forms with d.

T1 sequence (Q15109 23-342 limits assumed): as the sequence (Q15109 23-342) above

As for “Ac-ELKVLMEKEL-NH2 (listed as Homo sapiens) [L-peptide]”, the “block of S100A4 binding to RAGE” value in [1] is reported as “blocked”. Moreover, in assay [2], the “inhibition of cancer cell NFκB activity in orthotopic tumor” value is recorded as “significant inhibition of cancer cell NFκB activity”. Also, in [3], the “block of S100P binding to RAGE” value was “compete for binding of S100P”. Further, the “reduction in NFκB activity in subcutaneous tumors” value in assay [4] is “strong reduction in NFκB activity”. Further, the “block of S100P induced NFκB activity” value in [5] is listed as “block S100P induced NFκB activity”. Further, the “block of amphoterin (HMGB1) binding to RAGE” value in assay [6] was “competed with amphoterin and blocked its ability to bind with RAGE”.
Regarding “Ac-LEKEMLVKLE-NH2 (Ac-[dL][dE][dK][dE][dM][dL][dV][dK][dL][dE]-NH2; SMILES CSCC[C@@H](NC(=O)[C@@H](CCC(=O)O)NC(=O)[C@@H](CCCCN)NC(=O)[C@@H](CCC(=O)O)NC(=O)[C@@H](CC(C)C)NC(C)=O)C(=O)N[C@H](CC(C)C)C(=O)N[C@@H](C(=O)N[C@H](CCCCN)C(=O)N[C@H](CC(C)C)C(=O)N[C@H](CCC(=O)O)C(N)=O)C(C)C; listed as Homo sapiens) [D-peptide]”, the “block of S100A4 binding to RAGE” value in assay [1] is given as “blocked”. The “inhibition of cancer cell NFκB activity in orthotopic tumor” value in [2] was “significant inhibition of cancer cell NFκB activity”. Besides, the “block of S100P binding to RAGE” value in assay [3] is listed as “compete for binding of S100P”. Also, the “reduction in NFκB activity in subcutaneous tumors” value in [4] is recorded as “strong reduction in NFκB activity”. In addition, the “block of S100P induced NFκB activity” value in [5] is “block S100P induced NFκB activity”. Also, the “block of amphoterin (HMGB1) binding to RAGE” value in assay [6] was “competed with amphoterin and blocked its ability to bind with RAGE”.
Take “ELKVLMEKEL (listed as Homo sapiens) [SEQ ID NO: 1]”: in [7], the “inhibition of basal NFκB activity in tumors in vivo” value is “caused a significant reduction in NFκB activity”. Besides, the “block of the activation of NFκB by S100P” value in [8] was “could also block the activation of NFκB by S100P”. In addition, the “block of the interaction of S100P with RAGE” value (shortened to “block … with RAGE”) with RAGE [9] was “could block the interaction of S100P with RAGE”.
On to “GKDGDAVDKLLKD (listed as Homo sapiens) [SEQ ID NO: 3, b142 prints …]”, for which the “inhibition of basal NFκB activity in tumors in vivo” value in [7] is listed as “did not”. Further, the “block of the activation of NFκB by S100P” value in [8] is recorded as “could also block the activation of NFκB by S100P”. For the same molecule, the “block … with RAGE” value with RAGE [9] is on record as “could block the interaction of S100P with RAGE”.
As to “KELPGFLQSGKDKD (listed as Homo sapiens) [SEQ ID NO: 2]”, in assay [8], the “block of the activation of NFκB by S100P” value is listed as “not”. For the same molecule, the “block … with RAGE” value in the assay with RAGE [9] is “not”.

B1: S100P: S100 family calcium-binding protein, RAGE ligand, added exogenously as purified protein (protein, UniProt P25815 1-95, looked up)
Protein S100-P: MTELETAMGMIIDVFSRYSGSEGSTQTLTKGELKVLMEKELPGFLQSGKDKDAVDKLLKDLDANGDAQVDFSEFIVFVAAITSACHKYFEKAGLK
With B1, the “endothelial cell migration and alignment” value in [10] is “increased endothelial cell migration and alignment”. In addition, in [11], the HUVEC cell numbers result is listed as “significant increase in HUVEC cell numbers”. Moreover, in the assay with RAGE [12], the “direct interaction with RAGE (RAGE in S100P immunoprecipitates)” value was “able to interact directly with RAGE”.
